In data set [1] the target is matuzumab HC_7.8.60_A + matuzumab LC (IgG1). The data set is described as follows: LCMS, IgG1 BsAb co-expression in HEK293F.
Data set [2] can be described thus: LCMS, IgG1 BsAb co-expression; HCA (MetMAb) homodimer species.
For data set [3], the target named is matuzumab HC_7.8.60_A + matuzumab LC (IgG1). The data set is described as follows: LCMS, IgG1 BsAb co-expression; HCA/HCB heterodimer carrying two LC1.
Data set [4] shares this target. Nature of the data set: LCMS, IgG1 BsAb co-expression; HCA/HCB heterodimer carrying two LC2.

The results in this text go back to patent US20180009908.

B1: MetMAb HC_7.8.60_B + MetMAb LC (IgG1) (protein)
chain 1: EVQLVESGGGLVQPGGSLRLSCAASGYTFTSYWLHWVRKAPGKGLEWVGMIDPSNSDTRFNPEFKDRFTISADTSKNTAYLQMNSLRAEDTAVYYCATYRSYVTPLDYWGQGTLVTVSSASTKGPSVFPLAPSSKSTSGGTAALGCLVKDYFPEPVTVSWNSGALTSGVATGPAVLQSSGLYSLSSVVTVPSSSLGTQTYICNVNHKPSNTKVDKKVEPKSCDKTHTCPPCPAPELLGGPSVFLFPPKPKDTLMISRTPEVTCVVVDVSHEDPEVKFNWYVDGVEVHNAKTKPREEQYQSTYRVVSVLTVLHQDWLNGKEYKCKVSNKALPAPIEKTISKAKGQPRRPRVYTLPPSREEMTKNQVSLVCLVKGFYPSDIAVEWESNGQPENNYKTTPPVLDSDGSFFLYSVLTVDKSRWQQGNVFSCSVMHEALHNHYTQKSLSLSPGK
chain 2: RIQMTQSPSSLSASVGDRVTITCKSSQSLLYTSSQKNYLAWYQDKPGKAPKLLIYWASTRESGVPSRFSGSGSGTDFTLTISSLQPEDFATYYCQQYYAYPWTFGQGTKVEIKGQPKAAPSVTLFPPSSEELQANKATLVCYISDFYPGAVTVAWKADSSPVKAGVETTTPSKQSNNKYAAWSYLSLTPEQWKSHRSYSCQVTHEGSTVEKTVAPTEC
Take B1: the % AB (LC1/LC2) (correct IgG BsAb assembly) in data set [1] is 90.8%. The % AA Homodimer (incorrect assembly) in data set [2] is 0%. In data set [3], the % AB (2x LC1) (incorrect assembly) came out at 9.2%. For the same protein, in data set [4], the % AB (2x LC2) (incorrect assembly) worked out at 0%.
